This passage reports IC50 results from article PMC3292467, “Comparison between ^68Ga-bombesin (^68Ga-BZH3) and the cRGD tetramer ^68Ga-RGD4 studies in an experimental nude rat model with a neuroendocrine pancreatic tumor cell line” (EJNMMI Research, 2011).

Square brackets hold non-standard residues; d marks the D form.

This experiment addresses T1, integrin ανβ3, P06756.
T1 chain 1: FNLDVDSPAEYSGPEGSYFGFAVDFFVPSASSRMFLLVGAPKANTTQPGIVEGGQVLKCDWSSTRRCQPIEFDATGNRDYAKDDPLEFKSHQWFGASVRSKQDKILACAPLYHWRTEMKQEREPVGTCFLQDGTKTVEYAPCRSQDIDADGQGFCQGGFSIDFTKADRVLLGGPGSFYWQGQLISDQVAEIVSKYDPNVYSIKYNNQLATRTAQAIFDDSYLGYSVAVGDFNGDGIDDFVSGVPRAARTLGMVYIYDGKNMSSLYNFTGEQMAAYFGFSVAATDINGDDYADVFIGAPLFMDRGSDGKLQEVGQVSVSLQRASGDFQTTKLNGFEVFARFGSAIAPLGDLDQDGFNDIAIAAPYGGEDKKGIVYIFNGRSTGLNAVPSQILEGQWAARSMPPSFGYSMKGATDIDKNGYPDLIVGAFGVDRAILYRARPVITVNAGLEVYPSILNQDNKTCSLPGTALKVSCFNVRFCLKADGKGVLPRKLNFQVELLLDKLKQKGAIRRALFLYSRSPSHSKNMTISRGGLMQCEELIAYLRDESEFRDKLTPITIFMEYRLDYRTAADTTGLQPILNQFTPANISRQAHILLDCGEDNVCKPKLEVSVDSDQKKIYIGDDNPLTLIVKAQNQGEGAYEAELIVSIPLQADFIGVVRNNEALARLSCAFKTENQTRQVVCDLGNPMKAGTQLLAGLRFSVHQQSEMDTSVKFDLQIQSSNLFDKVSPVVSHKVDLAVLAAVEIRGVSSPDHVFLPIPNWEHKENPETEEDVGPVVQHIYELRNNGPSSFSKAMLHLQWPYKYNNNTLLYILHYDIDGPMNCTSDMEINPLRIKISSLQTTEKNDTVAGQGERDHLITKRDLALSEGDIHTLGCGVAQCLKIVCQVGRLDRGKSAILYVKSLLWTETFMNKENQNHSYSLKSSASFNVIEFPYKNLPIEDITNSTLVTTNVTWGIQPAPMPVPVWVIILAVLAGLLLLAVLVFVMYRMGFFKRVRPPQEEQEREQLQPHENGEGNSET
T1 chain 2: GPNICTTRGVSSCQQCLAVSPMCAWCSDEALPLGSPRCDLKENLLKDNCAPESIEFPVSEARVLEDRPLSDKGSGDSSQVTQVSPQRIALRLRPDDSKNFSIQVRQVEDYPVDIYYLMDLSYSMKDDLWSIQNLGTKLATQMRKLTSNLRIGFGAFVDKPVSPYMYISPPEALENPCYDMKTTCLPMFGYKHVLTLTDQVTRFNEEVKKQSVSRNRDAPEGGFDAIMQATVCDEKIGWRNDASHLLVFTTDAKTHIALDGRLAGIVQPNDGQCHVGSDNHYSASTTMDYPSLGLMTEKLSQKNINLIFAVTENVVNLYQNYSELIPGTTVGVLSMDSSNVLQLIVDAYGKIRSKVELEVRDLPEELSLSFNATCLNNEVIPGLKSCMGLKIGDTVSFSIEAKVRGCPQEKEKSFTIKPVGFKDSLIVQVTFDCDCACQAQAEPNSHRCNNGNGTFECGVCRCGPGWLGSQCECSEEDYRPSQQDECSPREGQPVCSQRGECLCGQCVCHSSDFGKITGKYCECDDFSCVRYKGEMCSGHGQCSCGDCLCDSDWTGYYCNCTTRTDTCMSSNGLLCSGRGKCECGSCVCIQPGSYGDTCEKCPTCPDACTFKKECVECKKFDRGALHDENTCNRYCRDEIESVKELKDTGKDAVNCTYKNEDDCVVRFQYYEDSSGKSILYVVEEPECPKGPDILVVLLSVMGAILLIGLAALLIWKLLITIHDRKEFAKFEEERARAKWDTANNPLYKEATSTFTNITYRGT
The experiment is described as follows: not stated; IC50 of ^68Ga-RGD4 for ανβ3; format, competitor and conditions not told. Particulars: remark: other sources report otherwise.

cyclo(RGD[dF]K) (not fully specified (residue 5); also: tetramer on DOTA-Mal4 core, 68Ga on DOTA) [^68Ga-RGD tetramer (^68Ga-labelled DOTA-comprising RGD tetramer)]: the IC50 – broadly, the concentration that inhibits the measured activity by half – amounted to 4.97 µM.
